In article PMC5627308, “Biochemical Function, Molecular Structure and Evolution of an Atypical Thioredoxin Reductase from Desulfovibrio vulgaris” (Frontiers in Microbiology, 2017):

Experiments:
[1] = target: T1, DvTR3 (Nitratidesulfovibrio vulgaris, UniProt Q72F38); assay: reduction of bound flavin, absorbance spectra, anaerobic; format: biochemical; details: 100 uM NAD(P)H, 50 mM Tris-HCl pH 7.5, 150 mM NaCl, 25 C
T1 construct: gene trxB-1; recombinant from E. coli, purified; FAD-containing

[2] = target: T2, DvTR1 (Nitratidesulfovibrio vulgaris, UniProt Q72B02); assay: as above; format: biochemical; details: 100 uM NAD(P)H, 50 mM Tris-HCl pH 7.5, 150 mM NaCl, 25 C
T2 construct: gene trxB-2; recombinant from E. coli, purified; FAD-containing

[3] = target: DvTRi, isolated thioredoxin reductase from Desulfovibrio vulgaris Hildenborough (Desulfovibrio vulgaris Hildenborough); assay: crystal structure; oxidized DvTRi, 2.0 Å; crystals from 12% PEG 3350, 100 mM BisTris pH 6.0 (crystals 1) or 25% PEG 4000, 50 mM ammonium acetate, 100 mM sodium citrate pH 5.6 (crystals 2)
[4] = target: DvTrx1C30S (Desulfovibrio vulgaris Hildenborough); assay: cross-linking; mixed-disulfide trapping with single-cysteine variants: DTT-reduced DvTRi variant reacted with equimolar DvTrx1 variant activated as TNB mixed disulfide, 50 mM Na/K phosphate pH 8.8, 2 h at 37°C; non-reducing SDS-PAGE, western blot with antiserum against EcTrxA
[5] = target: DvTrx1C33S (Desulfovibrio vulgaris Hildenborough); assay: as above

T2 sequence (Q72B02 entry or part of it): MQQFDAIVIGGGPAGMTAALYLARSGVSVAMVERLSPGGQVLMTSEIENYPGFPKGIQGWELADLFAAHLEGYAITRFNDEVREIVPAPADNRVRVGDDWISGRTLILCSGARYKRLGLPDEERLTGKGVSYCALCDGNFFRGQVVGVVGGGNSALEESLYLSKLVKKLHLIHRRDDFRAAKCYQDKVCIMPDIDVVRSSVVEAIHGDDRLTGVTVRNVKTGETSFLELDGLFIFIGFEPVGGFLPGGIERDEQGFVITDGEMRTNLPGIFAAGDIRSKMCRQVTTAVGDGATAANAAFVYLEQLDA
T1 sequence (Q72F38 entry or part of it): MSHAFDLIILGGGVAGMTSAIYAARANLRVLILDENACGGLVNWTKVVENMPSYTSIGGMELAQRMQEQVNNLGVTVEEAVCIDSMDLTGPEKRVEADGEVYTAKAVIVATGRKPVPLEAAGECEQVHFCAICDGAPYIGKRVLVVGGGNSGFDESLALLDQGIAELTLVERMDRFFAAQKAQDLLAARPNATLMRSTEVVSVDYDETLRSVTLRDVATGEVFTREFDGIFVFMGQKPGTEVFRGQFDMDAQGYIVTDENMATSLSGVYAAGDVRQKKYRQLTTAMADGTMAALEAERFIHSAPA

Compound: NC(=O)C1=CN([C@@H]2O[C@H](COP(=O)(O)OP(=O)(O)OC[C@H]3O[C@@H](n4cnc5c(N)ncnc54)[C@H](O)[C@@H]3O)[C@@H](O)[C@H]2O)C=CC1 [NADH]
- reduction of bound flavin, absorbance spectra, anaerobic [1]: DvTR1 and DvTR3 were efficiently reduced by their specific reductants

Compound: NC(=O)C1=CN([C@@H]2O[C@H](COP(=O)(O)OP(=O)(O)OC[C@H]3O[C@@H](n4cnc5c(N)ncnc54)[C@H](OP(=O)(O)O)[C@@H]3O)[C@@H](O)[C@H]2O)C=CC1 [NADPH]
- reduction of bound flavin, absorbance spectra, anaerobic [2]: DvTR1 and DvTR3 were efficiently reduced by their specific reductants

Compound: DvTRi, isolated thioredoxin reductase from Desulfovibrio vulgaris Hildenborough (enzyme)
- stoichiometry N [3]: 2

Compound: DvTrx1C30S (natural protein)
- stoichiometry N [4]: 2

Compound: DvTrx1C33S (natural protein)
- stoichiometry N [5]: 2
